Assay results from US20070128192A1.
Where a chain is given by its changes, count along the chain named.

B1: BAK278D6 scFv (scFv, V domains shown)
VH: EVQLVQSGAEVKKPGASVKVSCKASGYTFRNYGLSWVRQAPGQGLEWMGWISANNGDTNYGQEFQGRITMTTETSTNTAHMELRSLRSDDTAVYYCVRDSSSNWARWFFDLWGKGTMVTVSS
VL: SYVLTQPPSVSVAPGQTARIPCGGNNIGSKLVHWYQQKPGQAPVLVVYDDGDRPSGIPERFSGSNSGNTATLTISRIDAGDEADYYCQVWDTGSDPVVFGGGTKLTVL
B2: BAK1105H3 scFv (scFv, V domains shown, part only)
VH: QVQLVQSGAEVKKPGASVKVSCKASGYTFTNYGLSWVRQAPGQGLEWMGWISGLNGETLYGQEFQGRVTMTTDTSTSTAYMELRSLRSDDTAVYYCARDSSSSWARWFFDLWGRGTLVTVSS
VL: B1 VL with Q16K, P21T, N26I, V47I, I77V, D78E
modifications: scFv linker not given
B3: BAK1111D10 scFv (scFv, V domains shown, part only)
VH: B2 VH with S52A, G53T, L54P, N55D, E57Q, L59S, S101N
VL: B1 VL with Q16K, P21T, N26I, V47I, I77V, D78E
modifications: scFv linker not given
B4: BAK1167F4 scFv (scFv, V domains shown, part only)
VH: B2 VH with T30I, N31D, Y32T, L34V, G53A, L54N, E57D, L59N
VL: B1 VL with Q16K, P21T, N26I, V47I, I77V, D78E
modifications: scFv linker not given
B5: BAK1185F8 scFv (scFv, V domains shown, part only)
VH: B2 VH with N31D, S52R, G53N, L54I, N55D, E57Y, L59I
VL: B1 VL with Q16K, P21T, N26I, V47I, I77V, D78E
modifications: scFv linker not given
B6: BAK1184C8 scFv (scFv, V domains shown, part only)
VH: B2 VH with L54S, E57Y, L59S
VL: B1 VL with Q16K, P21T, N26I, V47I, I77V, D78E
modifications: scFv linker not given
B7: BAK1187B4 scFv (scFv, part only; not given: Linker, part only)
scFv, part: QVQLVQSGAEVKKPGASVKVSCKASGYTFTNYGLSWVRQAPGQGLEWMGWIDDDSGTTIYGQEFQGRVTMTTDTSTSTAYMELRSLRSDDTAVYYCARDSSSSWARWFFDLWGRGTLVTVSSSYVLTQPPSVSVAPGKTARITCGGNIIGSKLVHWYQQKPGQAPVLVIYDDGDRPSGIPERFSGSNSGNTATLTISRVEAGDEADYYCQVWDTGSDPVVFGGGTKLTVL
B8: BAK1185E1 scFv (scFv, part only; not given: Linker, part only)
scFv, part: B7 scFv, part with D52N, D54A, S55T, T57D, I59Q
B9: BAK1167F2 scFv (scFv, part only; not given: Linker, part only)
scFv, part: B7 scFv, part with T30E, N31Q, Y32T, L34V, D52S, D53A, D54N, S55N, T57D, I59N
B10: BAK1166G2 scFv (scFv, part only; not given: Linker, part only)
scFv, part: B7 scFv, part with T30A, Y32T, L34I, D52S, D53A, D54N, S55N, T57D, I59N

molecular target: human IL-13 variant (Q130R), baculovirus expressed, carboxyl terminus affinity tag (human) (UniProt P35225); assay: not given

| IC50 (read off the curve); TF-1 cell proliferation, 25 ng/ml human IL-13 variant (Q130R) [nM] | Binder |
| --- | --- |
| 80 | B1 |

molecular target: human IL-13 (human) (UniProt P35225); assay: cell-based or functional assay

| IC50, TF-1 cell proliferation assay [nM] | Binder |
| --- | --- |
| 0.2 | B2 |
| 0.2 | B3 |
| 0.2 | B4 |
| 0.2 | B5 |
| 0.2 | B6 |
| 0.1 | B7 |
| 0.2 | B8 |
| 0.2 | B9 |
| 0.2 | B10 |
